Test results: PMC11948756, “The molecular properties of the bHLH TCF4 protein as an intrinsically disordered hub transcription factor” (Cell Communication and Signaling : CCS, 2025)

Biological target: the molecule itself
Test: native gel or EMSA + SEC + AUC; free TCF4 and TCF4 with E-box dsDNA; buffer S (20 mM Tris-HCl, 150 mM NaCl, 2 mM TCEP, pH 7.5); SV-AUC at 20 °C, 2.5, 5.0 and 7.5 µM dTCF4, molecular weight fixed at that of the dimer (96.5 kDa); SEC on Superdex 200 Increase 10/300; native PAGE on 5% gel in 0.5 x TBE at 4 °C

B1: Transcription factor 4 (TCF4), human isoform I- (natural protein, UniProt P15884-16 1-451, looked up)
chain: MQDGHHSSDPWSSSSGMNQPGYAGMLGNSSHIPQSSSYCSLHPHERLSYPSHSSADINSSLPPMSTFHRSGTNHYSTSSCTPPANGTDSIMANRGSGAAGSSQTGDALGKALASIYSPDHTNNSFSSNPSTPVGSPPSLSAGTAVWSRNGGQASSSPNYEGPLHSLQSRIEDRLERLDDAIHVLRNHAVGPSTAMPGGHGDMHGIIGPSHNGAMGGLGSGYGTGLLSANRHSLMVGTHREDGVALRGSHSLLPNQVPVPQLPVQSATSPDLNPPQDPYRGMPPGLQGQSVSSGSSEIKSDDEGDENLQDTKSSEDKKLDDDKKDIKSITSNNDDEDLTPEQKAEREKERRMANNARERLRVRDINEAFKELGRMVQLHLKSDKPQTKLLILHQAVAVILSLEQQVRERNLNPKAACLKRREEEKVSSEPPPLSLAGPHPGMGDASNHMGQM
notes: Transcription factor 4 (TCF4), human, isoform I- (UniProt P15884-16), full length; lacks amino acids 1-216 of the canonical isoform B- (P15884-1); bHLH domain at residues 348-401; dimer 96.5 kDa; numbers count on: isoform I- (P15884-16); cDNA synthesised and codon-optimised, cloned into pET-SUMO; also called TCF4 I-; dTCF4 (dimeric TCF4); source: E. coli ArcticExpress, purified (Ni-NTA with 6 M …)
  binding result: binds
